How the values were obtained:
[1] = glucose release by transgenic plant protein extracts at 80° C.; format: biochemical; conditions: transgenic plant protein extract, incubation at 80° C.
Protocol: (§1) FIGS. 7A and B show the release of glucose by transgenic glycosyl hydrolases from exogenous and endogenous plant carbohydrates. FIG. 7A. Glucose released by the alpha-glucosidase using an exogenous soluble starch as substrate. A 5% (w/v) solution of soluble starch was incubated at 80° C. with no additions (closed circles), with a protein extract from a plant transformed with an empty vector (open circles) and with a protein extract from transformant MI52E containing the alpha-glucosidase (closed squares). FIG. 7B. Glucose released by glycosyl hydrolases using an endogenous polysaccharide-enriched plant extract as substrate. Protein extracts were: beta-glycosidase (closed squares), alpha-glucosidase (closed circles), and empty vector transformed plant (labeled). Glucose levels were determined using the glucose oxidase assay.
Conversion of plant polysaccharide into free sugar is conventionally done by addition of purified or semipurified hydrolytic enzymes. […] Protein extracts of the alpha-glucosidase transgenic plant MI52E, were prepared and combined with soluble starch. Plant leaves were harvested in the late afternoon, ground in liquid nitrogen with a mortar and pestle in 100 mM phosphate buffer at pH 7.0. […] No significant glucose was detected in reactions containing protein extracts from plants transformed with empty vector and added starch or in reactions containing starch alone. […]

[2] = glucose release from endogenous polysaccharide-enriched tobacco extract at 80° C.; format: biochemical, Nicotiana tabacum; conditions: transgenic protein extract plus polysaccharide-enriched tobacco extract, terminated after 160 hr
Protocol: as §1
To obtain tobacco leaf extract for assays, approximately […] of tobacco (five 1.1 cm diameter disk punches) leaves were harvested, rinsed with distilled water, midribs removed and weighed. Leaves were then ground to a powder in liquid nitrogen and ground again with a sterilized pestle. […] Glucose released by glycosyl hydrolase action on endogenous plant carbohydrates was measured using the Glucose Oxidase Assay (Sigma).
Levels of liberated glucose were determined as a function of incubation time at 80° C. […]

[3] = beta-glycosidase activity in tobacco leaf extract (beta-PNPG hydrolysis); format: biochemical
Protocol: To obtain tobacco leaf extract for assays, approximately […] of tobacco (five 1.1 cm diameter disk punches) leaves were harvested, rinsed with distilled water, midribs removed and weighed. Leaves were then ground to a powder in liquid nitrogen and ground again with a sterilized pestle. The extracts were then clarified by centrifugation at 14,000 rpm for 10 minutes at room temperature. The resulting supernatant was heat treated for 1 hour at 85° C. and clarified by spinning at 14,000 rpm for 10 minutes at room temperature. The supernatant was collected and assayed for alpha-glucosidase or beta-glycosidase enzyme activity by measuring the hydrolysis of p-nitrophenyl-alpha-glucopyranoside (alpha-PNPG) and p-nitrophenyl-beta-D-glucopyranoside (beta-PNPG), respectively, as previously described (Rolfsmeier, et al., 1998; Haseltine, et al., 1999(a)). Plant tissue extracts for studies on hydrolysis of added defined substrates were prepared using 100 g of tobacco leaves were harvested and grinded to a fine powder in liquid nitrogen. The leaf powder was resuspended in 500 ml of 10 mM tris-Cl pH7.0 to which 10 mM beta-mercaptoethanol has been added. The suspension was then homogenized in a Waring blender. The resulting extract was centrifuged at 5,000 rpm for 30 minutes at 4° C. and the supernatant was further clarified by filtering through three layers of cheesecloth. […] Glucose released by glycosyl hydrolase action on endogenous plant carbohydrates was measured using the Glucose Oxidase Assay (Sigma).
Glucosyl hydrolase levels were determined in primary plant transformants using clarified leaf extracts incubated at 80° C. […] Activity was measured on fully expanded leaves of plants that had grown in soil for 76 to 164 days. Levels of the beta-glycosidase in young primary transformants was determined in twenty-three independent events. […]
It has been determined that glycosyl hydrolases retain significant activity in fully mature and preserved leaf tissue. […]

[4] = maltose hydrolysis, glucose oxidase assay; format: biochemical; conditions: FIG. 4A
Description: (§2) Purification of the recombinant enzyme to apparent homogeneity employed heat fractionation of clarified cell sonicates followed by anion-exchange fast protein liquid chromatography and gel filtration fast protein liquid chromatography as described by Rolfsmeier, et al., 1995. […] Complete denaturation of the recombinant alpha-glucosidase required additional treatment with 6 M guanidine hydrochloride, resulting in exclusive formation of the 80-kDa monomer. Assays for alpha-glucosidase activity with p-nitrophenyl-α-D-glucopyranoside were performed as described by Rolfsmeier, et al., 1995. In enzymatic assays for hydrolysis of maltose and glycogen, release of glucose was monitored with a glucose oxidase assay kit (Sigma) as described by Rolfsmeier, et al., 1995.
(Rolfsmeier et al., 1995).

[5] = recalcitrance to denaturation in denaturing SDS-PAGE; format: physicochemical; conditions: boiling in 2% (wt/vol) SDS for 10 minutes
Description: as §2

[6] = conversion of added starch to glucose by concentrated malA tobacco extract at 85° C.; format: biochemical; conditions: 5% starch, extract pre-treated one hour at 85° C., 16 hours
Protocol: Precipitation of tobacco leaf proteins with (NH4)2 SO4 achieved a 3-fold concentration of the recombinant alpha-glucosidase with a recovery of 100%. Endogenous plant glycolytic activities were eliminated prior to malA assays by heat inactivation (1 hr, […]). Background due to endogenous glucose was removed by dialysis. […] In an attempt to remove this background, concentrated empty vector control extract was pre-incubated for one hour at 85° C., clarified by microcentrifugation and then incubated for 0 or 14 hour at 85° C. in the presence or absence of 5% starch. Without preincubation, background in the presence of starch was very high, at both 0 and at 14 hours, corresponding to 17.8 to 19.2 micrograms of glucose per 100 microliters of assay. Background in the absence of starch was much lower, but apparently more time-dependent, rising from 0.9 to 1.6 micrograms of glucose per 100 microliters in 14 hours (FIG. 7). When the extract was pre-heated before assay, the background in the absence of starch was unchanged, but the background in the presence of starch was then at the same level as the background in the absence of starch without pre-heating (FIG. 7). […]
For measurements of glycosyl hydrolase activities on glucose polymers. […] Aliquots of 100 ul were removed at four hour intervals and glucose was detected with a glucose oxidase glucose detection kit from Sigma.

[7] = alpha-glucosidase activity in tobacco leaf extract (alpha-PNPG hydrolysis); format: biochemical
Protocol: To obtain tobacco leaf extract for assays, approximately […] of tobacco (five 1.1 cm diameter disk punches) leaves were harvested, rinsed with distilled water, midribs removed and weighed. Leaves were then ground to a powder in liquid nitrogen and ground again with a sterilized pestle. The extracts were then clarified by centrifugation at 14,000 rpm for 10 minutes at room temperature. The resulting supernatant was heat treated for 1 hour at 85° C. and clarified by spinning at 14,000 rpm for 10 minutes at room temperature. The supernatant was collected and assayed for alpha-glucosidase or beta-glycosidase enzyme activity by measuring the hydrolysis of p-nitrophenyl-alpha-glucopyranoside (alpha-PNPG) and p-nitrophenyl-beta-D-glucopyranoside (beta-PNPG), respectively, as previously described (Rolfsmeier, et al., 1998; Haseltine, et al., 1999(a)). Plant tissue extracts for studies on hydrolysis of added defined substrates were prepared using 100 g of tobacco leaves were harvested and grinded to a fine powder in liquid nitrogen. The leaf powder was resuspended in 500 ml of 10 mM tris-Cl pH7.0 to which 10 mM beta-mercaptoethanol has been added. The suspension was then homogenized in a Waring blender. The resulting extract was centrifuged at 5,000 rpm for 30 minutes at 4° C. and the supernatant was further clarified by filtering through three layers of cheesecloth. Plant extracts used for studies on hydrolysis of endogenous polysaccharides as sources of transgenic proteins were prepared using one leaf (medium to large) for each plant which was harvested and ground to a fine powder in liquid nitrogen. The ground leaves were resuspended in 2 volumes of 100 mM sodium phosphate pH 7.0 with 10 mM beta-mercaptoethanol and the tissue was further homogenized in a Waring blender. The resulting extracts were then incubated at 80° C. to activate the recombinant alpha-glucosidase and beta-glycosidase for 48 hours. After incubation, the extracts were clarified by centrifugation by 12,500 rpm for 10 minutes 4° C. Glucose released by glycosyl hydrolase action on endogenous plant carbohydrates was measured using the Glucose Oxidase Assay (Sigma).
Glucosyl hydrolase levels were determined in primary plant transformants using clarified leaf extracts incubated at 80° C. Plants transformed with empty vector lacked detectable thermostable glycosyl hydrolase activity. Activity was measured on fully expanded leaves of plants that had grown in soil for 76 to 164 days. Levels of the beta-glycosidase in young primary transformants was determined in twenty-three independent events. Enzyme levels in ten representative isolates ranged over 12-fold with maximum values of 29 μmoles PNP/min/mg of protein (FIG. 5B).
It has been determined that glycosyl hydrolases retain significant activity in fully mature and preserved leaf tissue. Glycosyl hydrolase specific activities in plant tissues were compared, after freezing or drying, to levels in fresh tissue samples (Table 2). Significant beta-glycosidase activity was retained in leaves harvested and held at −80° C. for 5 days.

[8] = glycogen hydrolysis, glucose oxidase assay; format: biochemical
Description: as §2
Alpha-glucosidases of mammalian origin are generally distinguished from those of higher plants and eubacteria by their affinities for glycogen as a substrate.

[9] = hydrolysis of p-nitrophenyl-α-D-glucopyranoside by purified recombinant enzyme; format: biochemical; conditions: 85° C., purified recombinant enzyme from E. coli
Protocol: The production of the recombinant enzymes of this invention were conducted by over expression in E. coli. Assays for alpha-glucosidase activity were performed with para-nitrophenyl-alpha-D-glucopyranoside or methylumbelliferyl-alpha-D-glucoside. Assays for hydrolysis of substrate and detection of glucose were monitored by means known in the art. Purification of the recombinant enzyme to apparent homogeneity employed heat fractionation of clarified cell sonicates followed by anion-exchange fast protein liquid chromatography and gel filtration fast protein liquid chromatography as described in Rolfsmeier, et al.,1995.
Purification of the recombinant enzyme to apparent homogeneity employed heat fractionation of clarified cell sonicates followed by anion-exchange fast protein liquid chromatography and gel filtration fast protein liquid chromatography as described by Rolfsmeier, et al., 1995. […] Complete denaturation of the recombinant alpha-glucosidase required additional treatment with 6 M guanidine hydrochloride, resulting in exclusive formation of the 80-kDa monomer. Assays for alpha-glucosidase activity with p-nitrophenyl-α-D-glucopyranoside were performed as described by Rolfsmeier, et al., 1995. In enzymatic assays for hydrolysis of maltose and glycogen, release of glucose was monitored with a glucose oxidase assay kit (Sigma) as described by Rolfsmeier, et al., 1995. […]

[10] = Dried transgenic tobacco leaf tissue
[11] = Fresh transgenic tobacco leaf tissue

B1: Beta-glycosidase: S. solfataricus beta-glycosidase (lacS) converting beta-linked disaccharides into glucose, expressed in transgenic tobacco (protein)
chain: MYSFPNSFRFGWSQAGFQSEMGTPGSEDPNTDWYKWVHDPENMAAGLVSGDLPENGPGYWGNYKTFHDNAQKMGLKIARLNVEWSRIFPNPLPRPQNFDESKQDVTEVEINENELKRLDEYANKDALNHYREIFKDLKSRGLYFILNMYHWPLPLWLHDPIRVRRGDFTGPSGWLSTRTVYEFARFSAYIAWKFDDLVDEYSTMNEPNVVGGLGYVGVKSGFPPGYLSFELSRRAMYNIIQAHARAYDGIKSVSKKPVGIIYANSSFQPLTDKDMEAVEMAENDNRWWFFDAIIRGEITRGNEKIVRDDLKGRLDWIGVNYYTRTVVKRTEKGYVSLGGYGHGCERNSVSLAGLPTSDFGWEFFPEGLYDVLTKYWNRYHLYMYVTENGIADDADYQRPYYLVSHVYQVHRAINSGADVRGYLHWSLADNYEWASGFSMRFGLLKVDYNTKRLYWRPSALVYREIATNGAITDEIEHLNSVPPVKPLRH
[1]
  rate of appearance of glucose: 0.15 µg/h
[2]
  initial lag before levels of glucose began to increase: 28 h
[3]; [10]
  Beta-glycosidase specific activity in plant tissue: 31 μmoles PNP/min/mg
[3]; [11]
  Beta-glycosidase specific activity in plant tissue: 62 μmoles PNP/min/mg
[3]; Frozen transgenic tobacco leaf tissue (−80° C. for 5 days)
  Beta-glycosidase specific activity in plant tissue: 67 μmoles PNP/min/mg

B2: recombinant alpha-glucosidase: thermostable alpha-glucosidase of Sulfolobus solfataricus encoded by malA (SEQ ID NO:2), expressed recombinantly in E. coli or transgenic tobacco (protein, listed as Sulfolobus solfataricus)
chain: MQTIKIYENKGVYKVVIGEPFPPIEFPLEQKISSNKSLSELGLTIVQQGNKVIVEKSLDLKEHIIGLGEKAFELDRKRKRYVMYNVDAGAYKKYQDPLYVSIPLFISVKDGVATGYFFNSASKVIFDVGLEEYDKVIVTIPEDSVEFYVIEGPRIEDVLEKYTELTGKPFLPPMWAFGYMISRYSYYPQDKVVELVDIMQKEGFRVAGVFLDIHYMDSYKLFTWHPYRFPEPKKLIDELHKRNVKLITIVDHGIRVDQNYSPFLSGMGKFCEIESGELFVGKMWPGTTVYPDFFREDTREWWAGLISEWLSQGVDGIWLDMNEPTDFSRAIEIRDVLSSLPVQFRDDRLVTTFPDNVVHYLRGKRVKHEKVRNAYPLYEAMATFKGFRTSHRNEIFILSRAGYAGIQRYAFIWTGDNTPSWDDLKLQLQLVLGLSISGVPFVGCDIGGFQGRNFAEIDNSMDLLVKYYALALFFPFYRSHKATDGIDTEPVFLPDYYKEKVKEIVELRYKFLPYIYSLALEASEKGHPVIRPLFYEFQDDDDMYRIEDEYMVGKYLLYAPIVSKEESRLVTLPRGKWYNYWNGEIINGKSVVKSTHELPIYLREGSIIPLEGDELIVYGETSFKRYDNAEITSSSNEIKFSREIYVSKLTITSEKPVSKIIVDDSKEIQVEKTMQNTYVAKINQKIRGKINLE
[4]
  pH optimum for maltose hydrolysis: 4.5
[1]
  rate of appearance of glucose: 0.11 µg/h
[5]
  enzyme that failed to enter the separating gel, migrating in the stacking gel: 45 % of the total observed protein
[2]
  initial lag before levels of glucose began to increase: 28 h
[6]
  net rate of glucose formation (conversion of added starch to glucose): 0.42 micrograms per hour
[7]; [10]
  Alpha-glucosidase specific activity in plant tissue: 27 μmoles PNP/hr/mg
[7]; [11]
  Alpha-glucosidase specific activity in plant tissue: 1.6 μmoles PNP/hr/mg
[7]; Frozen transgenic tobacco leaf tissue
  Alpha-glucosidase specific activity in plant tissue: 3.6 μmoles PNP/hr/mg
[7]; dried vs fresh tobacco tissue
  activity more stable when dried, as compared to fresh tissues: 17 times
[7]; frozen vs fresh tobacco tissue
  activity more stable when frozen, as compared to fresh tissues: over two
[8]; 85° C.
  Km for glycogen: 64.9 mg/mL
  Vmax for glycogen: 1.0 μmol of glucose/min
[8]; FIG. 4B
  pH optimum for glycogen hydrolysis: 5.5
[9]
  Vmax for p-nitro-phenyl-α-D-glucopyranoside: 3.08 μmol of p-nitrophenol/min
[9]; read-out: Km for p-nitro-phenyl-α-D-glucopyranoside
  Km: 2160 µM

From patent US6506592B1, “Hyperthermophilic alpha-glucosidase gene and its use” (Board of Regents of the University of Nebraska, priority 1998, dated 2003)
